Experimental data reported in patent publication US20190234935A1 (Janssen / Centocor, published 2019).

What was measured:
[1] = target: T1, N-terminally flag tagged full-length GFRα2 on transiently transfected HEK293F cells (Homo sapiens (Human), UniProt O00451 22-444); assay: FACS on transfected HEK293F cells
T1 sequence: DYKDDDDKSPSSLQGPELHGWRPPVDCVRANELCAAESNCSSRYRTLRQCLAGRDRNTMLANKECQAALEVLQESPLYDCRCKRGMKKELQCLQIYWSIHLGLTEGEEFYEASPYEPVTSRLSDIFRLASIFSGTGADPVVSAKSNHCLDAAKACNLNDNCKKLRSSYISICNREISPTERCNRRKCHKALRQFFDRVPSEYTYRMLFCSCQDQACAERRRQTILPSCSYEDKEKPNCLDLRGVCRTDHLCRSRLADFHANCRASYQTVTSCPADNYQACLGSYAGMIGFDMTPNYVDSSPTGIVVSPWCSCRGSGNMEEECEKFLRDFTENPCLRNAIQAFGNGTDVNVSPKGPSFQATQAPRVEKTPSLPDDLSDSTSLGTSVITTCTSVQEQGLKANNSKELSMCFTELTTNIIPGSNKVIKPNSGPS
Protocol: (§1) For the confirmation of specific binding of GDF15 to GFRAL, HEK293F cells expressing the N-terminally flag tagged GFRAL, GFRα1, GFRα2, GFRα3 or GFRα4 were incubated with Fc-GDF15 and the binding was analyzed by FACS. Briefly, transiently transfected cells were spun down two days post transfection, washed with 1×BD staining buffer (BD Pharmingen) and treated with 5 μg/ml of Fc-GDF15 by incubating at 4° C. for 1 hour in 1×BD staining buffer (BD Pharmingen). Cells were subsequently washed and stained with the secondary antibody, goat anti-human IgG conjugated with Alexa Fluor 647 (AF647, Life Technologies), at 4° C. for 30 min, for the detection of Fc-GDF15 binding. Cells from the same batch of transfection were also stained with an Fc isotype negative control, and with FITC-labeled anti-flag antibody (Sigma) for the detection of cell surface expression, and DAPI for live/dead staining. The stained cells were analyzed on BD Fortessa LSR.

[2] = target: T2, N-terminally flag tagged full-length GFRα4 on transiently transfected HEK293F cells (Homo sapiens (Human), UniProt Q9GZZ7 21-278); assay: FACS on transfected HEK293F cells
T2 sequence: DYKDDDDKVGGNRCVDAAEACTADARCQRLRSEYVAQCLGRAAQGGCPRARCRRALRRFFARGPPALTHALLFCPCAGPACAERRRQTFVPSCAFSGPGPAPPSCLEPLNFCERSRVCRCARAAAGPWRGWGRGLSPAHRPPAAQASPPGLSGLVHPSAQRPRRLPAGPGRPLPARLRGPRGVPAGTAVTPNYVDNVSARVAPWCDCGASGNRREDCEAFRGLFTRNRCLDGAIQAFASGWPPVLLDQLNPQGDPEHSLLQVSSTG
Protocol: as §1

[3] = target: T3, N-terminally flag tagged full-length GFRα3 on transiently transfected HEK293F cells (Homo sapiens (Human), UniProt O60609 32-374); assay: FACS on transfected HEK293F cells
T3 sequence: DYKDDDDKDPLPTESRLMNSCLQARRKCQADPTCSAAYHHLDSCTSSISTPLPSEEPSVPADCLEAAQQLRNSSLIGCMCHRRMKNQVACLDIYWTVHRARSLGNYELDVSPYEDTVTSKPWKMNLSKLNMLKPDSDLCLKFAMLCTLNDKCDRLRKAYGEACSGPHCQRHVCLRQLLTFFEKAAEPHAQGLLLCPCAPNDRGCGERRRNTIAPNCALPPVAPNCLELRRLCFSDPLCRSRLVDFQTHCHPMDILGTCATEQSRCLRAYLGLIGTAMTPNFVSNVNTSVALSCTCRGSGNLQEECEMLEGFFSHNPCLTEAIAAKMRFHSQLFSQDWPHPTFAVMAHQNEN
Protocol: as §1

[4] = target: T4, N-terminally flag tagged full-length GFRα1 on transiently transfected HEK293F cells (Homo sapiens (Human), UniProt P56159 25-429); assay: FACS on transfected HEK293F cells
T4 sequence: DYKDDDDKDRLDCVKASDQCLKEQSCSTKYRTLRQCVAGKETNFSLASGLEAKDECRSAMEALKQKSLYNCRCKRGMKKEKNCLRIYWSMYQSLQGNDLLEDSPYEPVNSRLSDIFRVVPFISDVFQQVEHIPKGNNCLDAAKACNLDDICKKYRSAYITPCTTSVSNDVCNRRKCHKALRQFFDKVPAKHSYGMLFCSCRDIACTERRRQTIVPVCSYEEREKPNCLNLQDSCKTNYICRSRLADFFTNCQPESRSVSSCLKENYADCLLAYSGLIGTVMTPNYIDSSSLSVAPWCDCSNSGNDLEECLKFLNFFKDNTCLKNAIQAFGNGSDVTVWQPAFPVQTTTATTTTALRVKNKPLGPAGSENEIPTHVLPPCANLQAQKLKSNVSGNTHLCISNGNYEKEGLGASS
Protocol: as §1

[5] = target: T5, N-terminally flag tagged full-length GFRAL on transiently transfected HEK293F cells (Homo sapiens (Human), UniProt Q6UXV0 19-394); assay: FACS on GFRAL-expressing HEK293F cells, dose response
T5 construct: also called GFRAL-overexpressing HEK293F cells; GFRAL-expressing cells
T5 sequence: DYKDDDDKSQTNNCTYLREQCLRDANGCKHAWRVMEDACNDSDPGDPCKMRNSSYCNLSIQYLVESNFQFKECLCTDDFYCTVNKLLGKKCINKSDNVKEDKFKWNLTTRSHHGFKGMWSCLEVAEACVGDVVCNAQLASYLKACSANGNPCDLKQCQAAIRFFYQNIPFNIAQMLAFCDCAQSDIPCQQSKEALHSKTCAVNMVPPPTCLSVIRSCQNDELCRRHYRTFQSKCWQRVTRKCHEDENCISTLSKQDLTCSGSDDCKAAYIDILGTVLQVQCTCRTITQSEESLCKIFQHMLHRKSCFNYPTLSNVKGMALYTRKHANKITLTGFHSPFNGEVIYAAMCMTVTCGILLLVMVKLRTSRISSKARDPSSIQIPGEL

B1: heterodimeric Fc-GDF15 fusion molecule (Fc fusion)
chain 1: CPPCPAPEAAGGPSVFLFPPKPKDTLMISRTPEVTCVVVDVSQEDPEVQFNWYVDGVEVHNAKTKPREEQFNSTYRVVSVLTVLHQDWLNGKEYKCKVSNKGLPSSIEKTISKAKGQPREPQVYTLPPSQEEMTKNQVSLSCAVKGFYPSDIAVEWESNGQPENNYKTTPPVLDSDGSFFLVSRLTVDKSRWQEGNVFSCSVMHEALHNHYTQKSLSLSLGKGSGGGARNGDHCPLGPGRCCRLHTVRASLEDLGWADWVLSPREVQVTMCIGACPSQFRAANMHAQIKTSLHRLKPDTVPAPCCVPASYNPMVLIQKTDTGVSLQTYDDLLAKDCHCI
chain 2: CPPCPAPEAAGGPSVFLFPPKPKDTLMISRTPEVTCVVVDVSQEDPEVQFNWYVDGVEVHNAKTKPREEQFNSTYRVVSVLTVLHQDWLNGKEYKCKVSNKGLPSSIEKTISKAKGQPREPQVYTLPPSQEEMTKNQVSLWCLVKGFYPSDIAVEWESNGQPENNYKTTPPVLDSDGSFFLYSRLTVDKSRWQEGNVFSCSVMHEALHNHYTQKSLSLSLGK
notes: also called Fc-GDF15 ligand
B1: no binding (tested: 5 µg/ml) [1]; no binding (tested: 5 µg/ml) [2]; no binding (tested: 5 µg/ml) [3]. For the same binder, the binding result [4] was “no binding (tested: 5 µg/ml)” and the EC50 [5] was 0.258 nM.
